In IntAct's records for PubMed 29039417:

B1: BBSome complex member BBS2 (Homo sapiens), Q9BXC9 (parent)
chain: MLLPVFTLKLRHKISPRMVAIGRYDGTHPCLAAATQTGKVFIHNPHTRNQHVSASRVFQSPLESDVSLLSINQAVSCLTAGVLNPELGYDALLVGTQTNLLAYDVYNNSDLFYREVADGANAIVLGTLGDISSPLAIIGGNCALQGFNHEGSDLFWTVTGDNVNSLALCDFDGDGKKELLVGSEDFDIRVFKEDEIVAEMTETEIVTSLCPMYGSRFGYALSNGTVGVYDKTSRYWRIKSKNHAMSIHAFDLNSDGVNELITGWSNGKVDARSDRTGEVIFKDNFSSAIAGVVEGDYRMDGHIQLICCSVDGEIRGYLPGTAEMRGNLMDTSAEQDLIRELSQKKQNLLLELRNYEENAKAELASPLNEADGHRGIIPANTRLHTTLSVSLGNETQTAHTELRISTSNDTIIRAVLIFAEGIFTGESHVVHPSIHNLSSSICIPIVPPKDVPVDLHLKAFVGYRSSTQFHVFESTRQLPRFSMYALTSLDPASEPISYVNFTIAERAQRVVVWLGQNFLLPEDTHIQNAPFQVCFTSLRNGGHLHIKIKLSGEITINTDDIDLAGDIIQSMASFFAIEDLQVEADFPVYFEELRKVLVKVDEYHSVHQKLSADMADHSNLIRSLLVGAEDARLMRDMKTMKSRYMELYDLNRDLLNGYKIRCNNHTELLGNLKAVNQAIQRAGRLRVGKPKNQVITACRDAIRSNNINTLFKIMRVGTASS
partner: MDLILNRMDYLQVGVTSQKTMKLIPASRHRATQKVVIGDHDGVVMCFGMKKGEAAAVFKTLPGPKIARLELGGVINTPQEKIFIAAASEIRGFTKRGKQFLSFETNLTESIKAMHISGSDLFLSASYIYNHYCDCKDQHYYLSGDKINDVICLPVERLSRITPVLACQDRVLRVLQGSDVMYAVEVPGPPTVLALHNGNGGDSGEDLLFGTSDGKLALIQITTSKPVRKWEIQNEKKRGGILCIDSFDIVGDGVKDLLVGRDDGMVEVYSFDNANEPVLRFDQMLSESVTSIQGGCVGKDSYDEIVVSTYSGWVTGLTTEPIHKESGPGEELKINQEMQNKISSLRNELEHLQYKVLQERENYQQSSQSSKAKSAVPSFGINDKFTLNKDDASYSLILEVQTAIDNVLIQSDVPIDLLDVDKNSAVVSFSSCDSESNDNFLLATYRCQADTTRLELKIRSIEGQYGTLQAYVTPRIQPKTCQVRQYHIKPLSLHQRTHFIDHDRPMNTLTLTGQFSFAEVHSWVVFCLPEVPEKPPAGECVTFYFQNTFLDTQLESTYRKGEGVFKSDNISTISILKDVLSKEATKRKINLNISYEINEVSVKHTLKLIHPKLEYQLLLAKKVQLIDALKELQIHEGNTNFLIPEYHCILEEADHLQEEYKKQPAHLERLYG

Variants of: B1
Conditions: with BBS7, Q8IWZ6-2

| Variant | effect of a mutation on the interaction |
| --- | --- |
| R374E | with no effect |
| I548K | with no effect |
| C442A | with no effect |
| C442E | with no effect |
| T406A | with no effect |
| L654E | with no effect |
| K360E | with no effect |
| S605E | disrupting interaction strength |
| N380K | with no effect |
| L610E | with no effect |
| L685E | disrupting interaction strength |
| I404E | with no effect |
| V596K | with no effect |
| V675E | with no effect |
| F575K | with no effect |
| D490K | with no effect |
| I556K | with no effect |
| T487E | with no effect |
| H543K | with no effect |
| G515K | with no effect |
| A361K | with no effect |
| T400E | with no effect |
| A364K | with no effect |
| N528A | with no effect |
| P587E | with no effect |
| V389A | with no effect |

| Variant | effect of a mutation on the interaction |
| --- | --- |
| E592A | with no effect |
| R464A | with no effect |
| R464K | with no effect |
| M329K | with no effect |
| S720K | with no effect |
| M614E | with no effect |
| S611K | with no effect |
| L655K | with no effect |
| L633K | with no effect |
| S466K | with no effect |
| F590K | with no effect |
| M634K | with no effect |
| R325K | with no effect |
| L625A | with no effect |
| E667K | with no effect |
| T666K | with no effect |
| T666A | with no effect |
| N671E | disrupting interaction strength |
| Q346E | with no effect |
| F574K | with no effect |
| F574L | disrupting interaction strength |
| G462E | with no effect |
| W513K | disrupting interaction strength |
| L455K | with no effect |
| L455A | with no effect |
| V606E | with no effect |

| Variant | effect of a mutation on the interaction |
| --- | --- |
| T709A | with no effect |
| L544S | disrupting interaction strength |
| L544E | disrupting interaction strength |
| V453K | disrupting interaction strength |
| E420K | with no effect |
| R509E | with no effect |
| R509K | with no effect |
| I660E | with no effect |
| H545A | with no effect |
| N540E | with no effect |
| A564R | disrupting interaction strength |
| A564H | disrupting interaction strength |
| R635E | with no effect |
| A507K | with no effect |
| T639A | with no effect |
| I443A | with no effect |
| S405K | with no effect |
| Q693A | with no effect |
| I417K | with no effect |
| V588A | with no effect |
| V588E | with no effect |
| V446K | with no effect |
| A584K | with no effect |
| R622E | with no effect |
| Y355E | with no effect |
| G565A | with no effect |

| Variant | effect of a mutation on the interaction |
| --- | --- |
| N676K | with no effect |
| A572E | with no effect |
| S427K | with no effect |
| H384A | with no effect |
| H384K | with no effect |
| L486A | with no effect |
| S493K | with no effect |
| A615E | with no effect |
| A615K | with no effect |
| V716E | with no effect |
| V716K | with no effect |
| P444K | with no effect |
| F460K | with no effect |
| G425E | with no effect |
| N368E | with no effect |
| A719E | with no effect |
| R661K | with no effect |
| G541E | with no effect |
| R699A | with no effect |
| Y498E | with no effect |
| R413K | with no effect |
| D613E | with no effect |
| R652A | with no effect |
| L650A | with no effect |
| S618K | with no effect |
| Q608A | with no effect |

| Variant | effect of a mutation on the interaction |
| --- | --- |
| Q608E | with no effect |
| Q608K | with no effect |
| L350K | with no effect |
| S642A | with no effect |
| V687E | with no effect |
| E646A | with no effect |
| F472K | with no effect |
| T502K | with no effect |
| T397K | with no effect |
| S465A | with no effect |
| S465E | with no effect |
| S721A | with no effect |
| E340A | with no effect |
| V582A | with no effect |
| N354E | with no effect |
| S439E | with no effect |
| S439K | with no effect |
| L457E | disrupting interaction strength |
| N692K | with no effect |
| P366A | with no effect |
| L348K | with no effect |
| V694A | with no effect |
| V694K | with no effect |
| E583K | with no effect |
| P479E | disrupting interaction strength |
| L391A | with no effect |

| Variant | effect of a mutation on the interaction |
| --- | --- |
| A628K | disrupting interaction strength |
| Q516K | with no effect |
| D559A | with no effect |
| M714K | with no effect |
| M714A | with no effect |
| G421K | with no effect |
| A682K | with no effect |
| N358K | with no effect |
| L672K | with no effect |
| L672E | with no effect |
| N393A | with no effect |
| N327A | with no effect |
| N327K | with no effect |
| N705A | with no effect |
| E591A | with no effect |
| S623E | with no effect |
| M637E | with no effect |
| D371E | with no effect |
| D371K | with no effect |
| N347K | with no effect |
| G717K | with no effect |
| I377E | with no effect |
| I377K | with no effect |
| H470A | with no effect |
| L593A | with no effect |
| L593K | with no effect |

| Variant | effect of a mutation on the interaction |
| --- | --- |
| N517A | with no effect |
| S438K | with no effect |
| H428A | with no effect |
| V600A | with no effect |
| V600K | with no effect |
| L669A | with no effect |
| M571E | with no effect |
| M571K | with no effect |
| G670E | with no effect |
| S440A | disrupting interaction strength |
| I445E | disrupting interaction strength |
| L416K | with no effect |
| L416A | with no effect |
| A379K | with no effect |
| V451E | with no effect |
| Q396E | with no effect |
| T524K | with no effect |
| H665A | with no effect |
| N436K | with no effect |
| G627K | with no effect |
| P491K | with no effect |
| F518A | with no effect |
| F586K | with no effect |
| I713A | with no effect |
